Source: patent EP1417974A1

Target: CD44v6 on antigen-positive FaDu cells (human) (UniProt P16070)
Test: flow cytometry (FACS) on antigen-positive FaDu cells, FITC-labeled anti-human IgG detection, on ice

Chain of UniProt P16070 (P16070 21-742): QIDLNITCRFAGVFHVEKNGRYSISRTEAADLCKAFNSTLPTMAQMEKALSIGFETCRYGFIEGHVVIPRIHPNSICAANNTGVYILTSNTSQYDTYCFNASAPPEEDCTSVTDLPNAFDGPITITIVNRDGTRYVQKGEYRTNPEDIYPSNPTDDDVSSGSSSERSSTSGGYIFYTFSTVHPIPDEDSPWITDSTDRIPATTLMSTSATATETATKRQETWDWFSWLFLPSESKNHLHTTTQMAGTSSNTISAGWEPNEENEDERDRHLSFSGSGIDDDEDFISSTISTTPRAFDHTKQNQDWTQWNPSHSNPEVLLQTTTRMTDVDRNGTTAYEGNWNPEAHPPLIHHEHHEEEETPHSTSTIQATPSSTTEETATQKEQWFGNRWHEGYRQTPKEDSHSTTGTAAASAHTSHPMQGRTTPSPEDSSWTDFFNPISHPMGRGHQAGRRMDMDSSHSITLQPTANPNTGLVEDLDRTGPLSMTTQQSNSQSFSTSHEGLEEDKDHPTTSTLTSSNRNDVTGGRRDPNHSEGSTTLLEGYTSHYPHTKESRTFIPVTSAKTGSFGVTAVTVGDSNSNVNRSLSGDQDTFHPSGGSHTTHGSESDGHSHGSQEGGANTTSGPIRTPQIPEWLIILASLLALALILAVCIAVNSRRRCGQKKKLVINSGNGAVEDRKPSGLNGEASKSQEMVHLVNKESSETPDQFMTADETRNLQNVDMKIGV

Kd [nM]	Molecule
1.8	BIWI 1 (from UniProt P0DOX5 2-449)
1	BIWA 4 (antibody, human IgG1, kappa, V domains shown) VH: EVQLVESGGGLVKPGGSLRLSCAASGFTFSSYDMSWVRQAPGKGLEWVSTISSGGSYTYYLDSIKGRFTISRDNAKNSLYLQMNSLRAEDTAVYYCARQGLDYWGRGTLVTVSS VL: EIVLTQSPATLSLSPGERATLSCSASSSINYIYWYQQKPGQAPRLLIYLTSNLASGVPARFSGSGSGTDFTLTISSLEPEDFAVYYCLQWSSNPLTFGGGTKVEIKR
